# “And” between values parts separate entries of the source, which are not always exact repeats. Identical values can stand only once.
# Columns and labels:
# [1] = biological target: D3H44 light chain, wild type; assay: LCCA (SPR), competitor L2 F116A
# D3H44 light chain F116S = assay: LCCA (SPR), competitor L2 F118W_V133S
# D3H44 light chain F116A = assay: LCCA (SPR), competitor L1 WT
# [2] = biological target: D3H44 light chain L135W_N137A; assay: LCCA (SPR), competitor L2 F116A_L135A
# D3H44 light chain L135W [3] = assay: LCCA (SPR), competitor L2 F116A_L135A
# D3H44 light chain L135W [4] = assay: LCCA (SPR), competitor L2 F116A_L135V
# [5] = biological target: D3H44 light chain F116A_L135A; assay: LCCA (SPR), competitor L1 L135W
# [6] = biological target: D3H44 light chain F116A_L135V; assay: LCCA (SPR), competitor L1 L135W
# [7] = biological target: D3H44 light chain F118W_V133S; assay: LCCA (SPR), competitor L1 F116S
# [8] = biological target: D3H44 light chain F116A_L135A; assay: LCCA (SPR), competitor L1 L135W_N137A
# [9] = biological target: D3H44 light chain Q124E_Q160E_T178D; assay: LCCA: H1 co-expressed with L1 and L2, SPR read-out of light chain tags; competing chain L2
# [10] = biological target: D3H44 light chain Q124R_Q160K_T178R; assay: LCCA: H1 co-expressed with L1 and L2, SPR read-out of light chain tags; competing chain L1
# D3H44 light chain S176L [11] = assay: LCCA: H2 co-expressed with L1 and L2, SPR read-out of light chain tags; competing chain L1
# D3H44 light chain S176L [12] = assay: LCCA (SPR), competitor L1 V133S
# D3H44 light chain V133S [13] = assay: LCCA (SPR), competitor L2 S176L
# D3H44 light chain V133S [14] = assay: LCCA: H2 co-expressed with L1 and L2, SPR read-out of light chain tags; competing chain L2
# D3H44 light chain S176L [15] = assay: LCCA (SPR), competitor L2 WT
# [16] = biological target: D3H44 light chain, wild type; assay: LCCA (SPR), competitor L1 S176L
# [17] = biological target: D3H44 light chain Q124R_Q160K_T178R; assay: LCCA: H2 co-expressed with L1 and L2, SPR read-out of light chain tags; competing chain L1
# [18] = biological target: D3H44 light chain Q124E_Q160E_T178D; assay: LCCA: H2 co-expressed with L1 and L2, SPR read-out of light chain tags; competing chain L2
# [19] = biological target: D3H44 light chain V133A_Q160K_T178R; assay: LCCA: H2 co-expressed with L1 and L2, SPR read-out of light chain tags; competing chain L1
# [20] = biological target: D3H44 light chain V133A_Q160K_T178R; assay: LCCA (SPR), competitor L1 Q124E_V133W_Q160E_T180E
# [21] = biological target: D3H44 light chain Q124E_V133W_Q160E_T180E; assay: LCCA: H2 co-expressed with L1 and L2, SPR read-out of light chain tags; competing chain L2
# [22] = biological target: D3H44 light chain Q124E_V133W_Q160E_T180E; assay: LCCA (SPR), competitor L2 V133A_Q160K_T178R
# [23] = biological target: D3H44 light chain Q124E_V133W_Q160E_T180E; assay: LCCA: H1 co-expressed with L1 and L2, SPR read-out of light chain tags; competing chain L2
# [24] = biological target: D3H44 light chain V133A_Q160K_T178R; assay: LCCA: H1 co-expressed with L1 and L2, SPR read-out of light chain tags; competing chain L1
# D3H44 light chain Q38E [25] = assay: LCCA (SPR), competitor L1 Q38M
# D3H44 light chain Q38M [26] = assay: LCCA (SPR), competitor L2 Q38E
# D3H44 light chain Q38E [27] = assay: LCCA (SPR), competitor L1 Q38M; first of two ratios in the cell
# D3H44 light chain Q38M [28] = assay: LCCA (SPR), competitor L2 Q38E; first of two ratios in the cell
# D3H44 light chain Q38E [29] = assay: LCCA (SPR), competitor L1 Q38M; second of two ratios in the cell
# D3H44 light chain Q38M [30] = assay: LCCA (SPR), competitor L2 Q38E; second of two ratios in the cell
substance,measurement,setting,value
D3H44 heavy chain (Fab format) A139W,H1 L1 of H1 L1:H1 L2 (screen),[1],58.7
same,H2 L1 of H2 L2:H2 L1 (screen),D3H44 light chain F116S,4.6
same,H2 L1 of H2 L2:H2 L1 (verification),D3H44 light chain F116S,40.9 and 38.1
same,H1 L2 of H1 L1:H1 L2 (screen),D3H44 light chain F116A,30.5
same,H2 L1 of H2 L2:H2 L1 (screen),[2],19.8
same,H2 L1 of H2 L2:H2 L1 (screen),D3H44 light chain L135W [3],17.4
same,H2 L1 of H2 L2:H2 L1 (verification),D3H44 light chain L135W [3],10.2
same,H2 L1 of H2 L2:H2 L1 (screen),D3H44 light chain L135W [4],34.6
same,H2 L1 of H2 L2:H2 L1 (verification),D3H44 light chain L135W [4],19.1
same,H2 L2 of H2 L2:H2 L1 (screen),[5],77.4
same,H2 L2 of H2 L2:H2 L1 (verification),[5],78.7
same,H2 L2 of H2 L2:H2 L1 (screen),[6],62.7
same,H2 L2 of H2 L2:H2 L1 (verification),[6],76.7
same,H2 L2 of H2 L2:H2 L1 (screen),[7],76.5
same,H2 L2 of H2 L2:H2 L1 (verification),[7],38.1 and 40.9
same,H2 L2 of H2 L2:H2 L1 (screen),[8],73.6
D3H44 heavy chain (Fab format) D146G_S186R,H1 Readout (H1-L1),[9],84
same,H1 Readout (H1-L2),[10],1
D3H44 heavy chain (Fab format) F174V_P175S_S188G,H2 Readout (H2-L2),D3H44 light chain S176L [11],98
same,H2 L2 of H2 L2:H2 L1 (screen),D3H44 light chain S176L [12],81.1
same,H2 L2 of H2 L2:H2 L1 (verification),D3H44 light chain S176L [12],68.1
same,H2 L1 of H2 L2:H2 L1 (screen),D3H44 light chain V133S [13],1.44
same,H2 L1 of H2 L2:H2 L1 (verification),D3H44 light chain V133S [13],2.9
same,H2 Readout (H2-L1),D3H44 light chain V133S [14],1
same,H1 L1 of H1 L1:H1 L2 (screen),D3H44 light chain S176L [15],53.4
same,H1 L2 of H1 L1:H1 L2 (screen),[16],9.68
D3H44 heavy chain (Fab format) K145E_D146G_Q179D_S188L,H2 Readout (H2-L2),[17],74
same,H2 Readout (H2-L1),[18],2
D3H44 heavy chain (Fab format) K145T_Q179D_S188F,H2 Readout (H2-L2),[19],87
same,H2 L2 of H2 L2:H2 L1 (screen),[20],87.3
same,H2 L2 of H2 L2:H2 L1 (verification),[20],83.2
same,H2 Readout (H2-L1),[21],14
same,H2 L1 of H2 L2:H2 L1 (screen),[22],1.5
same,H2 L1 of H2 L2:H2 L1 (verification),[22],11.5
D3H44 heavy chain (Fab format) L143A_D144G_Q179R,H1 L2 of H1 L1:H1 L2 (screen),[20],0.4
same,H1 L2 of H1 L1:H1 L2 (verification),[20],0.6
same,H1 Readout (H1-L1),[23],104
same,H1 L1 of H1 L1:H1 L2 (screen),[22],97.4
same,H1 L1 of H1 L1:H1 L2 (verification),[22],93.6
same,H1 Readout (H1-L2),[24],1
D3H44 heavy chain (Fab format) Q39M,H1 L2 of H1 L1:H1 L2 (screen),D3H44 light chain Q38E [25],33.3
same,H1 L1 of H1 L1:H1 L2 (screen),D3H44 light chain Q38M [26],69.6
same,H1 L2 of H1 L1:H1 L2 (verification),D3H44 light chain Q38E [27],31.3
same,H1 L1 of H1 L1:H1 L2 (verification),D3H44 light chain Q38M [28],60.2
same,H1 L2 of H1 L1:H1 L2 (verification),D3H44 light chain Q38E [29],40.6
same,H1 L1 of H1 L1:H1 L2 (verification),D3H44 light chain Q38M [30],58.8

# — patent publication US20190085055A1
